One assay has as its target T1, 重组人FcrRIIb (human, UniProt P31994 43-217, limits assumed).
T1 construct: Recombinant, histidine-tagged, captured on anti-penta-His biosensor; also called FcγRIIb; not shown: histidine tag
T1 sequence (looked up): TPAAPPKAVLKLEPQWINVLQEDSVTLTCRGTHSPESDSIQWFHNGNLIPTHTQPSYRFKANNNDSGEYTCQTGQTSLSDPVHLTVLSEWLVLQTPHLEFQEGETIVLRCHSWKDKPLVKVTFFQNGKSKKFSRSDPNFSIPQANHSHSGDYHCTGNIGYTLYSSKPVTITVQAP
Description: BLI, His-tagged Fc receptor captured on anti-penta-His biosensor, antibody in solution.

In the next assay the target is T2, 重组人FcrRIIa (human, UniProt P12318 36-218, limits assumed).
T2 construct: Recombinant, histidine-tagged, captured on anti-penta-His biosensor; also called FcγRIIa; not shown: histidine tag
T2 sequence (looked up): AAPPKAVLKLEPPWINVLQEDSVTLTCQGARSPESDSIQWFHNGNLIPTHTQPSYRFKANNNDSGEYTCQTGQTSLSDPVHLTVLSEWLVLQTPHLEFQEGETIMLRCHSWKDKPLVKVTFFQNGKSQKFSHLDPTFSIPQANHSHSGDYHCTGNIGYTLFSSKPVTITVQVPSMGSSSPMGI
The description is as above.

Another assay addresses T3, 重组人FcrRI (human, UniProt P12314 16-288, limits assumed).
T3 construct: Recombinant, histidine-tagged, captured on anti-penta-His biosensor; also called FcγRI; FcgRI; not shown: histidine tag
Described as above.

The next assay concerns the target T4, 重组人FcrRIIIb (human, UniProt O75015 17-200).
T4 construct: Recombinant, histidine-tagged, captured on anti-penta-His biosensor; also called FcγRIIIb; not shown: histidine tag
Described as above.

In the next assay the target is T5, 重组人FcrRIIIa (human, UniProt P08637 17-208).
T5 construct: Recombinant, histidine-tagged, captured on anti-penta-His biosensor; also called FcγRIIIa; not shown: histidine tag
The assay is described as above.

The next assay concerns the target KIT (野生型KIT, M-07e细胞) (UniProt P10721 26-976, limits assumed). Nature of the assay: cell-based or functional assay.

T4 sequence (O75015 17-200 limits assumed): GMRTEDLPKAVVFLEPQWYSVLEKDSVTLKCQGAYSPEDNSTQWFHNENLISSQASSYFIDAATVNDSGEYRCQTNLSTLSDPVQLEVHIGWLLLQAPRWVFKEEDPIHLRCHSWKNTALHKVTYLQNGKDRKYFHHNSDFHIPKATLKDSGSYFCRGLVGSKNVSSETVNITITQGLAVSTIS
T3 sequence (P12314 16-288 limits assumed): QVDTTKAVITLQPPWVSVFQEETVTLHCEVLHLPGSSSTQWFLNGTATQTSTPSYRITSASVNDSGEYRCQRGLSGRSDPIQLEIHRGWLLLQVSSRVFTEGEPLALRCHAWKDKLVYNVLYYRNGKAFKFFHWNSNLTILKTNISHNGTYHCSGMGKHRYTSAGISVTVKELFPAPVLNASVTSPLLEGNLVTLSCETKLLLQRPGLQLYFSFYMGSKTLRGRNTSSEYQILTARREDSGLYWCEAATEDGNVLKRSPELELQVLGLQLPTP
Sequence of KIT (野生型KIT, M-07e细胞) (P10721 26-976 limits assumed): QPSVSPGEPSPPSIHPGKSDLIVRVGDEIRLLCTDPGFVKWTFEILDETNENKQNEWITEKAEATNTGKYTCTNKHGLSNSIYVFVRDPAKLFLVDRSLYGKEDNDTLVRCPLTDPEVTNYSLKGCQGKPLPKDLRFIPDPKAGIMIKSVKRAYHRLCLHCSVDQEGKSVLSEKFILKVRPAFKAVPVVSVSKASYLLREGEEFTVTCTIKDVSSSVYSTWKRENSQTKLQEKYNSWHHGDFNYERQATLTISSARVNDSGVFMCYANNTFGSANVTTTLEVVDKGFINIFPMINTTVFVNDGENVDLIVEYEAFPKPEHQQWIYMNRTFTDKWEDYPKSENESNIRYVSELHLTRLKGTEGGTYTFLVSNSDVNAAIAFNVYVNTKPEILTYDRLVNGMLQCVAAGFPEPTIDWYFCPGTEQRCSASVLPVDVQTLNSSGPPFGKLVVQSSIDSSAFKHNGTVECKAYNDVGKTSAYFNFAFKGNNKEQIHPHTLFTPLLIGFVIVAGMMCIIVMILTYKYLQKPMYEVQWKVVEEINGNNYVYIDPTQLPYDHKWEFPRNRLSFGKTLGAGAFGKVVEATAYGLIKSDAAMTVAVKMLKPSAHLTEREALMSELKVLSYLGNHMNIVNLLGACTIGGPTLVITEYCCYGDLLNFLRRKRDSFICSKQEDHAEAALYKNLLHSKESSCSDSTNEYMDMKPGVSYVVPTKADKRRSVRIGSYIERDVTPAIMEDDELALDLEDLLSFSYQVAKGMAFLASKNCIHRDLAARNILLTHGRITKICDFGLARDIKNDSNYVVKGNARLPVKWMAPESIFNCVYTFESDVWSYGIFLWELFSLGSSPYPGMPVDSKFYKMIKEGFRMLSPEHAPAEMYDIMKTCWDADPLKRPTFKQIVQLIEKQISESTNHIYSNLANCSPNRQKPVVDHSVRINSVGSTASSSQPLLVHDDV
T5 sequence (P08637 17-208 limits assumed): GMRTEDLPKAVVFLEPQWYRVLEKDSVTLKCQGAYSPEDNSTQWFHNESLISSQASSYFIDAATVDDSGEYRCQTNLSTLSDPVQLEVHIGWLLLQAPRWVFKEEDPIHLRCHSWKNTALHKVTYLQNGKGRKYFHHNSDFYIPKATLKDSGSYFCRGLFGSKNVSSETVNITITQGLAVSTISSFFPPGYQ

B1: mAbc (antibody)
VH: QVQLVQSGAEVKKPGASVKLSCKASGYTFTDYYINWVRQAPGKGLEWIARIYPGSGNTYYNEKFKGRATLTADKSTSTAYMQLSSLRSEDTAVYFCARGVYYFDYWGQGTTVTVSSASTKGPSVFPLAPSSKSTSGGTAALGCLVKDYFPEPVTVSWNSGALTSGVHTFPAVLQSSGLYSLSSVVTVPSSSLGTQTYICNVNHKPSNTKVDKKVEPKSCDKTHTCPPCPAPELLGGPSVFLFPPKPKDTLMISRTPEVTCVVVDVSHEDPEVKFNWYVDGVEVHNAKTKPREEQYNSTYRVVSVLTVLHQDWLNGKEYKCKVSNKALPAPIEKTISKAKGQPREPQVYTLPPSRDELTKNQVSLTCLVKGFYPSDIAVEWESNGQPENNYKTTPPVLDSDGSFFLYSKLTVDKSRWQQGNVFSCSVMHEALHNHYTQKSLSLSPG
VL: DIVMTQSPSSLSASVGDRVTITCKASQNVRTNVAWYQQKPGKAPKALIYSASYRYSGVPDRFTGSGSGTDFTLTISSLQPEDFADYFCQQYNSYPRTFGGGTKVEIKRTVAAPSVFIFPPSDEQLKSGTASVVCLLNNFYPREAKVQWKVDNALQSGNSQESVTEQDSKDSTYSLSSTLTLSKADYEKHKVYACEVTHQGLSSPVTKSFNRGEC
notes: also called 具有相同可变区序列但是未突变的(野生型)人IgG1序列的相应抗体; 具有野生型(未突变)IgG1 Fc域的相应抗体; copies: 2 + 2
As to B1, the binding result in the assay with 重组人FcrRIIb is “no binding”.

B2: mAb1 (antibody, human IgG1, kappa)
heavy: QVQLVQSGAEVKKPGASVKLSCKASGYTFTDYYINWVRQAPGKGLEWIARIYPGSGNTYYNEKFKGRATLTADKSTSTAYMQLSSLRSEDTAVYFCARGVYYFDYWGQGTTVTVSSASTKGPSVFPLAPSSKSTSGGTAALGCLVKDYFPEPVTVSWNSGALTSGVHTFPAVLQSSGLYSLSSVVTVPSSSLGTQTYICNVNHKPSNTKVDKKVEPKSCDKTHTCPPCPAPEAQGGPSVFLFPPKPKDTLYITREPEVTCVVVDVSHEDPEVKFNWYVDGVEVHNAKTKPREEQYNSTYRVVSVLTVLHQDWLNGKEYKCQVSNKALPAPIEKTISKAKGQPREPQVYTLPPSRDELTKNQVSLTCLVKGFYPSDIAVEWESNGQPENNYKTTPPVLDSDGSFFLYSKLTVDKSRWQQGNVFSCSVMHEALHNHYTQKSLSLSPG
light: DIVMTQSPSSLSASVGDRVTITCKASQNVRTNVAWYQQKPGKAPKALIYSASYRYSGVPDRFTGSGSGTDFTLTISSLQPEDFADYFCQQYNSYPRTFGGGTKVEIKRTVAAPSVFIFPPSDEQLKSGTASVVCLLNNFYPREAKVQWKVDNALQSGNSQESVTEQDSKDSTYSLSSTLTLSKADYEKHKVYACEVTHQGLSSPVTKSFNRGEC
notes: also called 抗-KIT抗体mAb1; Fc突变的抗-KIT抗体; copies: 2 + 2
For B2, the binding result with 重组人FcrRIIa, in the assay with 重组人FcrRI, with 重组人FcrRIIb, with 重组人FcrRIIIb and with 重组人FcrRIIIa was “no binding (tested: 500nM)” each time. Further, in the assay with KIT (野生型KIT, M-07e细胞), the “SCF-依赖性M-07e细胞增殖的抑制, 平均IC50” value came out at 1.11 nM.

Values taken from patent CN117136070A (CELLDEX THERAPEUTICS INC, dated 2023).
